Test results reported in patent US20040013674A1 (APOXIS, published 2004).
Each block holds one binder with its values, some of them ahead of it.

Legend:
[1] = biological target: T1, FLAG-tagged soluble muBAFF (murine, UniProt Q9WU72 127-309, limits assumed); experiment: co-immunoprecipitation on protein A-Sepharose, anti-FLAG M2 Western blot
T1 construct: not shown: FLAG tag
Procedure: 250 μl of Optimem containing hTACI(1-160)-Ig was mixed with various FLAG ligands of the TNF family. Some of the ligands were in Optimem while others were anti-FLAG (mAb M2)-purified. The common characteristic was that the amount used was empirically the same (500 ng for purified ligands, i.e. hBAFF, muBAFF, TRAIL, FasL, EDA). Ligands were produced in bacteria (HBAFF, TRAIL) or transiently expressed in 293 EBNA cells (all others). Control Receptors-Fc were mostly used as Optimem supernates, except TNFR1, OX40, LTBR, which were purified over protein-A columns. 1 μg of purified receptors was used. Receptor-Fc proteins (about 1 μg) were mixed with FLAG-ligands (about 500 ng). Volume was adjusted to 1.2 ml with PBS and 5 μl of protein A-Sepharose was added. Incubation was performed for 1 h at 4° C. on a wheel. Beads were harvested by centrifugation and loaded onto a minicolumn (yellow tips with 1 mm diameter frit). Washes were performed by applying vacuum at the bottom of the column to aspirate medium and 2 times 400 μl PBS washes. The dried beads were eluted with 20 μl of Citrate-NaOH pH 2.7 and the eluate was neutralized with 6 μl of 1M Tris-HCl pH 9.0. 10 μl 3x sample buffer plus DTT was added, the sample was boiled and 22 μl loaded for Western blot analysis. […] ECL was used to illuminate the signal. […]

[2] = biological target: T2, N-terminally FLAG-tagged full length human TACI, expressed on 293EBNA cells (plasmid pJST552) (human, UniProt O14836 1-293); experiment: FACS on 293EBNA cells transfected with pJST552; rabbit anti-murine APRIL and donkey anti-rabbit-PE
T2 construct: also called flag-tagged full length TACI; TACI transfected cells; not shown: N-terminal FLAG tag (and any leader) of the pJST552 insert
T2 sequence: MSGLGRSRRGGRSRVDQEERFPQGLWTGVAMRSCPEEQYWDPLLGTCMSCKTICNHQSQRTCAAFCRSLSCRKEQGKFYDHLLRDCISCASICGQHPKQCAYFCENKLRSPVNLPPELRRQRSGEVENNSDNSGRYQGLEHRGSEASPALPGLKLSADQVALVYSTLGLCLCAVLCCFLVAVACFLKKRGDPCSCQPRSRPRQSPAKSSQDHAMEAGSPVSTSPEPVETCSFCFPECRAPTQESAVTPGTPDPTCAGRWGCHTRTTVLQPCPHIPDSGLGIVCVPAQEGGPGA
Procedure: FIG. 8 is a schematic representation of purified myc-tagged murine APRIL binding to TACI transfected cells. 293EBNA cells were transfected with expression plasmid pJST552 that expressed FLAG-tagged full length human TACI. Cells were harvested 48 hours later using 5 mM EDTA and stained with myc-tagged murine APRIL at various concentrations. No protein control was stained with detection reagents (rabbit anti-murine APRIL and donkey anti-rabbit-PE (Jackson Immnunoresearch)). Staining in FL1 of protein encoded by the cotransfected GFP expression plasmid illustrates expression efficiency.
293EBNA cells were co-transfected with a plasmids expressing full length N-terminally FLAG tagged human TACI (pJST552)(see FIG. 2), and a GFP marker, (AN050). Transfections were performed using Lipofectamine 2000 (LifeTechnologies) according to manufacturer's conditions. Transfection media was DMEM supplemented with 10% FBS, 4 mM glutamine, and 50 μM Z-VAD (BACHEM Bioscience Inc.) Cells were harvested with PBS supplemented with 5 mM EDTA at 24 hours post-transfection. Cells were washed in FACS buffer (PBS-10% FBS-0.02% NaN₃) and resuspended at a density of 5×10⁶ cells/mL. […] The samples were analyzed by FACS and plotted (FIG. 8). Cell gate analyzed is shown as R1. […]

T1 sequence (Q9WU72 127-309 limits assumed): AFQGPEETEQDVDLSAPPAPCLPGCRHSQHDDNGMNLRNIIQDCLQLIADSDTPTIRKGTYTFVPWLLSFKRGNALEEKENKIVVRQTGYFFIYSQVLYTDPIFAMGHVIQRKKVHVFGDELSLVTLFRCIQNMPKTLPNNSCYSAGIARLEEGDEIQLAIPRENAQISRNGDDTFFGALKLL

B1: human TACI(1-160)-Ig fusion protein (plasmid PS882) (Fc fusion)
chain: MSGLGRSRRGGRSRVDQEERFPQGLWTGVAMRSCPEEQYWDPLLGTCMSCKTICNHQSQRTCAAFCRSLSCRKEQGKFYDHLLRDCISCASICGQHPKQCAYFCENKLRSPVNLPPELRRQRSGEVENNSDNSGRYQGLEHRGSEASPALPGLKLSADQV
notes: Used as conditioned medium (Optimem) of 293 cells; also called hTACI(1-160)-Ig; soluble hTACI(1-160)-Ig; not shown: human IgG Fc
- binding result [1]: no binding (tested: 500 ng purified ligand)

- binding result [2]: binds
B2: myc-tagged murine APRIL (A88), expressed in Pichia pastoris (plasmid pCMM276) (ligand)
chain: EQKLISEEDLNGGGGSKELAVLTQKHKKKHSVLHLVPVNITSKDSDVTEVMWQPVLRRGRGLEAQGDIVRVWDTGIYLLYSQVLFHDVTFTMGQVVSREGQGRRETLFRCIRSMPSDPDRAYNSCYSAGVFHLHQGDIITVKIPRANAKLSLSPHGTFLGFVKL
modifications: glycosylated (as printed in paragraph 69)
notes: also called myc-muAPRIL; Myc-Murine APRIL A88
